Substrate in one data set: pNPB
As to the kind of experiment: Proxy for plastic degradation [Relative activity].

Substrate in a further data set: PET
Kind of data set: Proxy for plastic degradation [Released monomer concentration (HPLC/LC-MS) (terephthalic acid)]. The conditions noted are these: pH 8.

B1: unnamed (protein)
chain: MPITARNTLASLLLASSALLLSGTAFAANPPGGDPDPGCQTDCNYQRGPDPTDAYLEAASGPYTVSTIRVSSLVPGFGGGTIHYPTNAGGGKMAGIVVIPGYLSFESSIEWWGPRLASHGFVVMTIDTNTIYDQPSQRRDQIEAALQYLVNQSNSSSSPISGMVDSSRLAAVGWSMGGGGTLQLAADGGIKAAIALAPWNSSINDFNRIQVPTLIFACQLDAIAPVALHASPFYNRIPNTTPKAFFEMTGGDHWCANGGNIYSALLGKYGVSWMKLHLDQDTRYAPFLCGPNHAAQTLISEYRGNCPY
As to B1, the “Proxy for plastic degradation” value with pNPB (pH 3) came out at 0%; with pNPB (pH 4), 0%; in the data set with pNPB (pH 5), 0%; with pNPB (pH 6) it was 4%; in the data set with pNPB (pH 7, 17 °C) it was 63%; with pNPB (pH 7, 22 °C), 70%. Besides, the “Proxy for plastic degradation” value in the data set with pNPB (pH 7, 28 °C) stood at 71%; in the data set with pNPB (pH 7, 37 °C) it was 77%; with pNPB (pH 7, 42 °C), 76%; with pNPB (pH 7, 55 °C), 82%; with pNPB (pH 7, 60 °C) it was 100%; with pNPB (pH 7, 70 °C) it was 100%. Also, the “Proxy for plastic degradation” value in the data set with pNPB (pH 7, 80 °C) turned out to be 81%; with pNPB (pH 7, 90 °C), 82%; with pNPB (pH 8), 100%; with pNPB (pH 9.2), 99%; with pNPB (pH 10.2), 90%; with PET it was 900 µM.

B2: unnamed (protein)
chain: MNVLTKCKLALGIIAIFFSLPSFAVPCSDCSNGFERGQVPRVDQLESSRGPYSVKTINVSRLARGFGGGTIHYSTESGGQQGIIAVVPGYVSLEGSIKWWGPRLASWGFTVITIDTNTIYDQPDSRASQLSAAIDYVIDKGNDRSSPIYGLVDPNRVGVIGWSMGGGGSLKLATDRKIDAVIPQAPWYLGLSRFSSITSPTMIIACQADVVAPVSVHASRFYNQIPGTTPKAYFEIALGSHFCANTGYPSEDILGRNGVAWMKRFIDKDERYTQFLCGQNFDSSLRVSEYRDNCSYY
For the protein B2, the “Proxy for plastic degradation” value came to 0% in the data set with pNPB (pH 3); 0% with pNPB (pH 4); 0% with pNPB (pH 5); 11% with pNPB (pH 6); 60% in the data set with pNPB (pH 7, 17 °C); 60% with pNPB (pH 7, 22 °C). The “Proxy for plastic degradation” value with pNPB (pH 7, 28 °C) was 62%; with pNPB (pH 7, 37 °C), 72%; with pNPB (pH 7, 42 °C), 82%; with pNPB (pH 7, 55 °C), 100%; in the data set with pNPB (pH 7, 60 °C), 81%; in the data set with pNPB (pH 7, 70 °C), 81%. Moreover, the “Proxy for plastic degradation” value in the data set with pNPB (pH 7, 80 °C) was 55%; with pNPB (pH 7, 90 °C), 35%; with pNPB (pH 8), 100%; with pNPB (pH 9.2) it was 76%; in the data set with pNPB (pH 10.2), 48%.

For the origin of these results see the PETadex activity labels (doi:10.1128/aem.02773-17).
